T1: rat calcitonin receptor (rat, UniProt P32214 25-516)
T1 construct: whole, on cells; also called rCTR; rat calcitonin (a) receptor
T1 sequence (looked up): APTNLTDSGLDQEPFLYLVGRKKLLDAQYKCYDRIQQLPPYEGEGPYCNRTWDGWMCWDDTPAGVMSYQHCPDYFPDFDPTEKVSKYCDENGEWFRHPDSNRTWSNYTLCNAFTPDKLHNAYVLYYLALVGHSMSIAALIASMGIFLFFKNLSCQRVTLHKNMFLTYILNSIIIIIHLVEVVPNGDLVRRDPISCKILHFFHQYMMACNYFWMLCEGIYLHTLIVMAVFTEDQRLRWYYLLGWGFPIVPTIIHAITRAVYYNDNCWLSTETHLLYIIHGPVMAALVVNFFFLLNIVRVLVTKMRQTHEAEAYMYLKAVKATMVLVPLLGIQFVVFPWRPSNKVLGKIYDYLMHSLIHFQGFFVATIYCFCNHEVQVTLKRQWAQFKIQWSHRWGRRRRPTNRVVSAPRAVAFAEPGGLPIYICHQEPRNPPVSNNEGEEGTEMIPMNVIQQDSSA

T2: human calcitonin receptor (human, UniProt P30988 25-474)
T2 construct: whole, on cells; also called hCTR; hCT
T2 sequence (looked up): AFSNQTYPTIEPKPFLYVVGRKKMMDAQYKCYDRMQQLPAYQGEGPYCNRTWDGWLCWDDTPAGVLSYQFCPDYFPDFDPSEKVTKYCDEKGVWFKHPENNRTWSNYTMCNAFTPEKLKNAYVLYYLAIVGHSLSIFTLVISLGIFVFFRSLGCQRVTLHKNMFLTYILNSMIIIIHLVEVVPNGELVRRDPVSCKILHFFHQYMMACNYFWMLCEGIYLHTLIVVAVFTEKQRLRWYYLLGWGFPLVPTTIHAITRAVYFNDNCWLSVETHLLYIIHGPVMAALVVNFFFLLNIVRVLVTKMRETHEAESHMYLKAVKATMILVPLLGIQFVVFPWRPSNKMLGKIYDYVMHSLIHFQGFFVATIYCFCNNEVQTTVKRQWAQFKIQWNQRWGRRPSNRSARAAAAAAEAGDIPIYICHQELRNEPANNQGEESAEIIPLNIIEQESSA

T3: rat amylin receptor (rat calcitonin receptor + rat RAMP 3) (rat, UniProt P32214 25-516; Q9JJ73 23-147)
T3 construct: whole, on cells; also called rAmylin-R; rat amylin 3(a) receptor
T3 sequence (looked up) 1: T1 sequence (looked up)
T3 sequence (looked up) 2: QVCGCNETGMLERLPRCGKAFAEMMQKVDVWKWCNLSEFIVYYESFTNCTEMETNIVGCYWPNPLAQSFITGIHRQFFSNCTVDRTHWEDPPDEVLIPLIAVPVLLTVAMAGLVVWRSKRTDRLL

B1: N^ε1-[(4S)-4-carboxy-4-(19-carboxynonadecanoylamino)butanoyl]-[Glu14,Arg17,Pro21,Pro27,Arg35]-h-amylin (peptide)
peptide: K([γGlu-C20 diacid])CNTATCATQRLAEFLRHSSPNFGAIPSSTNVGSRTY-NH2
modifications: disulfide 2-7; N-terminus assumed
SMILES: CC[C@H](C)[C@H](NC(=O)[C@H](C)NC(=O)CNC(=O)[C@H](Cc1ccccc1)NC(=O)[C@H](CC(N)=O)NC(=O)[C@@H]1CCCN1C(=O)[C@H](CO)NC(=O)[C@H](CO)NC(=O)[C@H](Cc1c[nH]cn1)NC(=O)[C@H](CCCNC(=N)N)NC(=O)[C@H](CC(C)C)NC(=O)[C@H](Cc1ccccc1)NC(=O)[C@H](CCC(=O)O)NC(=O)[C@H](C)NC(=O)[C@H](CC(C)C)NC(=O)[C@H](CCCNC(=N)N)NC(=O)[C@H](CCC(N)=O)NC(=O)[C@@H](NC(=O)[C@H](C)NC(=O)[C@@H]1CSSC[C@H](NC(=O)[C@@H](N)CCCCNC(=O)CC[C@H](NC(=O)CCCCCCCCCCCCCCCCCCC(=O)O)C(=O)O)C(=O)N[C@@H](CC(N)=O)C(=O)N[C@@H]([C@@H](C)O)C(=O)N[C@@H](C)C(=O)N[C@@H]([C@@H](C)O)C(=O)N1)[C@@H](C)O)C(=O)N1CCC[C@H]1C(=O)N[C@@H](CO)C(=O)N[C@@H](CO)C(=O)N[C@H](C(=O)N[C@@H](CC(N)=O)C(=O)N[C@H](C(=O)NCC(=O)N[C@@H](CO)C(=O)N[C@@H](CCCNC(=N)N)C(=O)N[C@H](C(=O)N[C@@H](Cc1ccc(O)cc1)C(N)=O)[C@@H](C)O)C(C)C)[C@@H](C)O
notes: synthetic analogue of human amylin; also called compound 51
B2: N^ε1-[(4S)-4-carboxy-4-(19-carboxynonadecanoylamino)butanoyl]-[His14,Arg17,Pro21,Pro27,His34]-h-amylin (peptide)
peptide: K([γGlu-C20 diacid])CNTATCATQRLAHFLRHSSPNFGAIPSSTNVGHNTY-NH2
modifications: disulfide 2-7; N-terminus assumed
SMILES: CC[C@H](C)[C@H](NC(=O)[C@H](C)NC(=O)CNC(=O)[C@H](Cc1ccccc1)NC(=O)[C@H](CC(N)=O)NC(=O)[C@@H]1CCCN1C(=O)[C@H](CO)NC(=O)[C@H](CO)NC(=O)[C@H](Cc1c[nH]cn1)NC(=O)[C@H](CCCNC(=N)N)NC(=O)[C@H](CC(C)C)NC(=O)[C@H](Cc1ccccc1)NC(=O)[C@H](Cc1c[nH]cn1)NC(=O)[C@H](C)NC(=O)[C@H](CC(C)C)NC(=O)[C@H](CCCNC(=N)N)NC(=O)[C@H](CCC(N)=O)NC(=O)[C@@H](NC(=O)[C@H](C)NC(=O)[C@@H]1CSSC[C@H](NC(=O)[C@@H](N)CCCCNC(=O)CC[C@H](NC(=O)CCCCCCCCCCCCCCCCCCC(=O)O)C(=O)O)C(=O)N[C@@H](CC(N)=O)C(=O)N[C@@H]([C@@H](C)O)C(=O)N[C@@H](C)C(=O)N[C@@H]([C@@H](C)O)C(=O)N1)[C@@H](C)O)C(=O)N1CCC[C@H]1C(=O)N[C@@H](CO)C(=O)N[C@@H](CO)C(=O)N[C@H](C(=O)N[C@@H](CC(N)=O)C(=O)N[C@H](C(=O)NCC(=O)N[C@@H](Cc1c[nH]cn1)C(=O)N[C@@H](CC(N)=O)C(=O)N[C@H](C(=O)N[C@@H](Cc1ccc(O)cc1)C(N)=O)[C@@H](C)O)C(C)C)[C@@H](C)O
notes: synthetic analogue of human amylin; also called compound 81
B3: N^ε1-[(4S)-4-carboxy-4-(19-carboxynonadecanoylamino)butanoyl]-[His14,Arg17,Pro21,Pro27,Pro31]-h-amylin (peptide)
peptide: K([γGlu-C20 diacid])CNTATCATQRLAHFLRHSSPNFGAIPSSTPVGSNTY-NH2
modifications: disulfide 2-7; N-terminus assumed
SMILES: CC[C@H](C)[C@H](NC(=O)[C@H](C)NC(=O)CNC(=O)[C@H](Cc1ccccc1)NC(=O)[C@H](CC(N)=O)NC(=O)[C@@H]1CCCN1C(=O)[C@H](CO)NC(=O)[C@H](CO)NC(=O)[C@H](Cc1c[nH]cn1)NC(=O)[C@H](CCCNC(=N)N)NC(=O)[C@H](CC(C)C)NC(=O)[C@H](Cc1ccccc1)NC(=O)[C@H](Cc1c[nH]cn1)NC(=O)[C@H](C)NC(=O)[C@H](CC(C)C)NC(=O)[C@H](CCCNC(=N)N)NC(=O)[C@H](CCC(N)=O)NC(=O)[C@@H](NC(=O)[C@H](C)NC(=O)[C@@H]1CSSC[C@H](NC(=O)[C@@H](N)CCCCNC(=O)CC[C@H](NC(=O)CCCCCCCCCCCCCCCCCCC(=O)O)C(=O)O)C(=O)N[C@@H](CC(N)=O)C(=O)N[C@@H]([C@@H](C)O)C(=O)N[C@@H](C)C(=O)N[C@@H]([C@@H](C)O)C(=O)N1)[C@@H](C)O)C(=O)N1CCC[C@H]1C(=O)N[C@@H](CO)C(=O)N[C@@H](CO)C(=O)N[C@H](C(=O)N1CCC[C@H]1C(=O)N[C@H](C(=O)NCC(=O)N[C@@H](CO)C(=O)N[C@@H](CC(N)=O)C(=O)N[C@H](C(=O)N[C@@H](Cc1ccc(O)cc1)C(N)=O)[C@@H](C)O)C(C)C)[C@@H](C)O
notes: synthetic analogue of human amylin; also called compound 62
B4: N^ε1-[(4S)-4-carboxy-4-(19-carboxynonadecanoylamino)butanoyl]-[His14,Arg17,Pro21,Pro27,Arg34]-h-amylin (peptide)
peptide: K([γGlu-C20 diacid])CNTATCATQRLAHFLRHSSPNFGAIPSSTNVGRNTY-NH2
modifications: disulfide 2-7; N-terminus assumed
SMILES: CC[C@H](C)[C@H](NC(=O)[C@H](C)NC(=O)CNC(=O)[C@H](Cc1ccccc1)NC(=O)[C@H](CC(N)=O)NC(=O)[C@@H]1CCCN1C(=O)[C@H](CO)NC(=O)[C@H](CO)NC(=O)[C@H](Cc1c[nH]cn1)NC(=O)[C@H](CCCNC(=N)N)NC(=O)[C@H](CC(C)C)NC(=O)[C@H](Cc1ccccc1)NC(=O)[C@H](Cc1c[nH]cn1)NC(=O)[C@H](C)NC(=O)[C@H](CC(C)C)NC(=O)[C@H](CCCNC(=N)N)NC(=O)[C@H](CCC(N)=O)NC(=O)[C@@H](NC(=O)[C@H](C)NC(=O)[C@@H]1CSSC[C@H](NC(=O)[C@@H](N)CCCCNC(=O)CC[C@H](NC(=O)CCCCCCCCCCCCCCCCCCC(=O)O)C(=O)O)C(=O)N[C@@H](CC(N)=O)C(=O)N[C@@H]([C@@H](C)O)C(=O)N[C@@H](C)C(=O)N[C@@H]([C@@H](C)O)C(=O)N1)[C@@H](C)O)C(=O)N1CCC[C@H]1C(=O)N[C@@H](CO)C(=O)N[C@@H](CO)C(=O)N[C@H](C(=O)N[C@@H](CC(N)=O)C(=O)N[C@H](C(=O)NCC(=O)N[C@@H](CCCNC(=N)N)C(=O)N[C@@H](CC(N)=O)C(=O)N[C@H](C(=O)N[C@@H](Cc1ccc(O)cc1)C(N)=O)[C@@H](C)O)C(C)C)[C@@H](C)O
notes: synthetic analogue of human amylin; also called compound 85
B5: N^ε1-[(4S)-4-carboxy-4-(19-carboxynonadecanoylamino)butanoyl]-[His14,Arg17,Pro21,Pro27,His35]-h-amylin (peptide)
peptide: K([γGlu-C20 diacid])CNTATCATQRLAHFLRHSSPNFGAIPSSTNVGSHTY-NH2
modifications: disulfide 2-7; N-terminus assumed
SMILES: CC[C@H](C)[C@H](NC(=O)[C@H](C)NC(=O)CNC(=O)[C@H](Cc1ccccc1)NC(=O)[C@H](CC(N)=O)NC(=O)[C@@H]1CCCN1C(=O)[C@H](CO)NC(=O)[C@H](CO)NC(=O)[C@H](Cc1c[nH]cn1)NC(=O)[C@H](CCCNC(=N)N)NC(=O)[C@H](CC(C)C)NC(=O)[C@H](Cc1ccccc1)NC(=O)[C@H](Cc1c[nH]cn1)NC(=O)[C@H](C)NC(=O)[C@H](CC(C)C)NC(=O)[C@H](CCCNC(=N)N)NC(=O)[C@H](CCC(N)=O)NC(=O)[C@@H](NC(=O)[C@H](C)NC(=O)[C@@H]1CSSC[C@H](NC(=O)[C@@H](N)CCCCNC(=O)CC[C@H](NC(=O)CCCCCCCCCCCCCCCCCCC(=O)O)C(=O)O)C(=O)N[C@@H](CC(N)=O)C(=O)N[C@@H]([C@@H](C)O)C(=O)N[C@@H](C)C(=O)N[C@@H]([C@@H](C)O)C(=O)N1)[C@@H](C)O)C(=O)N1CCC[C@H]1C(=O)N[C@@H](CO)C(=O)N[C@@H](CO)C(=O)N[C@H](C(=O)N[C@@H](CC(N)=O)C(=O)N[C@H](C(=O)NCC(=O)N[C@@H](CO)C(=O)N[C@@H](Cc1c[nH]cn1)C(=O)N[C@H](C(=O)N[C@@H](Cc1ccc(O)cc1)C(N)=O)[C@@H](C)O)C(C)C)[C@@H](C)O
notes: synthetic analogue of human amylin; also called compound 66

Numbered stars: 1 amine (or outer) side, 2 acyl side, 3 side chain; on linkers, the order of the positions; unused ones are H or OH. Bridge positions count the residues as written; N and C are the ends. Side chains are listed from the residue outwards. Ends that are not written are not given here. * marks the point of attachment. C20 diacid = O=C(O)CCCCCCCCCCCCCCCCCCC(=O)*; γGlu = O=C(O)[C@H](CCC(=O)[*:2])N[*:1]

This note sets out measurements from US20140087995A1 (published 2014).

For the first assay, the target named is T1, rat calcitonin receptor. The experiment in a line: ratio of binding IC50s: rat calcitonin receptor over rat amylin receptor (reference).
With B1, the “Ratio rCT/rAmylin binding” value is 119.
Take B2: the “Ratio rCT/rAmylin binding” value came to 42.9.
Take B3: the “Ratio rCT/rAmylin binding” value turned out to be 42.8.
Turning to B4, the “Ratio rCT/rAmylin binding” value was found to be 46.5.
On the same count and under the same terms, for B5 the value was 35.8.

For another assay, the target named is T2, human calcitonin receptor. The experiment in a line: ratio of binding IC50s: human calcitonin receptor over human amylin receptor (reference). The method in brief: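 Competition binding by SPA uses membrane preparations (35 ng/μL final) in pH 7.4 Hepes buffer with 1 mM CaCl2 and 5 mM MgCl₂. Incubation lasts 120 min at 25° C, and IC₅₀ comes from one-site fitting.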
With B1, the “Ratio hCT/hAmylin binding” value is 37.5.
On the same count and under the same terms, for B2 the value was 87.2; for B3, 63.
Take B4: the “Ratio hCT/hAmylin binding” value came to 91.8.
In the case of B5, the “Ratio hCT/hAmylin binding” value came out at 45.5.

In another assay the target is T1, rat calcitonin receptor. Put plainly: SPA competition with 125I-calcitonin, membranes of BHK cells with rat calcitonin receptor (Assay VIII).
Broadly, the IC50 is the concentration needed to halve the response being measured. Take B1: the IC50 was found to be 62 nM.
On the same count and under the same terms, with B2 the figure was 61.1 nM.
Same read-out and setting: for B3 the value was 18 nM; for B4, 146 nM; for B5, 20.8 nM.

A further assay concerns the target T3, rat amylin receptor (rat calcitonin …). Put plainly: SPA competition with 125I-rat amylin, membranes of BHK cells with rat calcitonin receptor + rat RAMP3 (Assay VI).
As for B1, the IC50 was 0.523 nM.
With B2, the IC50 stood at 1.42 nM.
The same measure, in the same setting: with B3 the figure was 0.42 nM; with B4, 3.14 nM.
The same measure, in the same setting: with B5 the figure was 0.581 nM.
